Experimental data as given in paper PMC3500560.

Target: His6-tagged SYD-2LH1 (C. elegans) (UniProt Q21049)
Test: pull-down

His6-tagged SYD-2LH1 (C. elegans), sequence (Q21049 91-217): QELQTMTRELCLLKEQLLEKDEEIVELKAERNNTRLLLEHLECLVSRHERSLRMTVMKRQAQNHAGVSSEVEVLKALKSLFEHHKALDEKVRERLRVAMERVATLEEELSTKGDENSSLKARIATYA

binding relative to SYD-2LH1 (percent): < 10%
Substance: GST-LH1Δ (Δ179–198) (from UniProt Q21049 1-1139) (domain or fragment)
